Where “and” joins values, the source holds several entries; their conditions need not be identical. Equal entries are not always repeated. Entries after “also recorded” stand apart in the source; their conditions may differ.
B1: hPTH 7-84: Synthetic human PTH 7-84 fragment, an exemplary PTH antagonist, obtained from Bachem (peptide)
peptide: LMHNLGKHLNSMERVEWLRKKLQDVHNFVALGAPLAPRDAGSQRPRKKEDNVLVESHEKSLGEANKADVNVLTKAKSQ
B2: hPTH 1-84: Synthetic human PTH 1-84, the whole 84 amino acid parathyroid hormone (SEQ ID NO:1), PTH agonist, purchased from Bachem (peptide)
chain: SVSEIQLMHNLGKHLNSMERVEWLRKKLQDVHNFVALGAPLAPRDAGSQRPRKKEDNVLVESHEKSLGEANKADVNVLTKAKSQ

Assays:
ROS/17.2 cells = test: cAMP production in osteoblastic cell line ROS/17.2; assay type: cell-based, rat; settings: for intracellular cAMP: 10^-8 mol/L peptide, five-minute incubation, N=6, before treatment 18.1±1.25
Protocol: Osteoblastic cell line. To compare the biological effects of the two peptides (HPTH 1-84 and 7-84), intracellular cAMP production was measured in the rate osteosarcoma cell line ROS/17.2, which has an osteoblastic phenotype and is known to increase cAMP production in response to PTH. Cells were cultured in Ham's F12 media containing 10% fetal bovine serum. Cells were plated out in 12 well plates at a density of 30,000 cells per well and grown to confluence. Cells were washed three times with KHMS buffer at 37° C. (KCI 4.0 mmol/L, CaCl2 1.25 mmol/L, MgSO4 1.25 mmol/L, KH2PO4 1.2 mmol/L, HEPES 10 mmol/L, NaCl 100 mmol/L, NaHCO3 37 mmol/L, and glucose 10 mmol/L, pH 7.5). cAMP production was measured using 500 μL of KHMS buffer (37°) containing isobutyl-1 methylxantine (1BMX) 1.0 mmol/L and various concentrations (10^−11 to 10^−8 mol/L) of hPTH 1-84 or hPTH 7-84. After a five-minute incubation, 100 μL of 1.8 mol/L pechloric acid were added. After an additional five-minute incubation at room temperature, 100 μL of 3 mol/KHCO3 were added to neutralize the acid. Samples were centrifuged at 3000 rpm for 15 minutes, and the supernatants were assayed for cAMP [26].

[1] = system: parathyroidectomized (PTX) rats; test: Calcemic response in parathyroidectomized (PTX) rats fed a 0.02% calcium diet; assay type: in vivo, rat; settings: hPTH 7-84 given 10 minutes prior to each hPTH 1-84 injection, 1:1 molar ratio, N=6
Protocol: Calcemic response. Normal female Sprague-Dawley rats weighing 225 to 250 g (Harlan, Indianapolis, Ind., USA) were parathyroidectomized (PTX) and fed a 0.02% calcium diet. Rats with a plasma calcium below 7.0 mg/dL after overnight fasting were included in the study. A 20 μg dose of hPTH 1-84 or 7-84 was given intraperitoneally to PTX rats in four doses of 5 μg each at 30-minute intervals (0, 30, 60, and 90 minutes). For control studies, the rats received vehicle (saline solution) alone. Blood was drawn via the tail at 0, 60, 90, and 120 minutes. For competition experiments, rats received an injection of hPTH 7-84 10 minutes prior to each injection of hPTH 1-84. The molar ratio of hPTH 7-84:hPTH 1-84 was 1:1.
Total plasma calcium levels were determined using an atomic absorption spectrophotometer (model 110B; Perkin Elmer, Norwalk, Conn., USA). Plasma phosphorus levels were determined using an autoanalyzer (COBAS MIRA Plus; Roche, Newark, N.J., USA).

[2] = system: rats having hypoparathyroidism (parathyroid glands removed); test: Serum calcium after i.v. injection in rats with parathyroid glands removed; assay type: in vivo, rat
Description: The CAP rebound effect is believed to be the body's response to an administration of CIP. This response occurs when the parathyroid gland cells secrete CAP in an effort to return the CAP/CIP ratio to homeostasis with the pre-CIP administration levels. PTH antagonist administration is not accompanied by hypercalcemia and osteosarcoma, as with direct CAP administration. […] All of the rats had their parathyroid glands removed. Five rats received an i.v. injection of a saline control. The serum calcium of the control rats was measured and on average was lowered over time by about 0.18 mg/dl by virtue of a parathyroidectomy. Nine rats received an i.v. injection (10 μg/kg) of hPTH obtained from Bachem, AG of Bubendorf, Switzerland. The serum calcium of the hPTH rats was measured and on average was raised over time by about 0.65 mg/dl. Five rats received an equimolar i.v. injection of a PTH7-84 (an exemplary PTH antagonist) also obtained from Bachem, AG of Bubendorf, Switzerland. The serum calcium of the PTH antagonist rats was measured and on average was lowered over time by about 0.30 mg/dl. Finally, six rats received an i.v. injection comprised of hPTH (10 μg/kg) and an equimolar amount of PTH antagonist PTH7-84. The serum calcium of the hPTH/PTH antagonist rats was measured and on average remained substantially the same over time, raising only about 0.03 mg/dl.

[3] = system: Normal female Sprague-Dawley rats; test: Phosphaturic response (clearance studies: GFR and FEPO4) in rats; assay type: in vivo, rat; settings: for glomerular filtration rate (GFR), hPTH 7-84 given with hPTH 1-84: hPTH 7-84 given five minutes prior to hPTH 1-84, molar ratio 4:1, N=8, control period 2.1±0.1
Protocol: Phosphaturic response. Normal female Sprague-Dawley rats weighing 225 to 250 g were prepared for clearance studies under light anesthesia. Polyethylene catheters (PE50) were placed in the femoeral artery for the collection of blood and measurement of blood pressure (Blood Pressure Analyzer; Micro-Medic, Inc., Louisville, Ky., USA), in the femoral vein for infusion and in the bladder for the collection of urine. Rats were placed in Plexiglass holders and allowed to recover from the effect of the anesthetic for one hour. A priming dose (0.6 mL) of chemical inulin in saline was administered over a period of three minutes to achieve a plasma inulin level between […]. A solution of saline containing inulin to maintain this level and calcium gluconate to deliver 0.5 mg. calcium was infused at the rate of 0.03 mL/min. After equilibration, a total of four 30-minute urine collections was obtained.
To assess the effect of hPTH 1-84 on phosphate excretion, urine was collected during two control periods, after which rats received a priming bolus of 1.8 μg of HPTH 1-84 followed by a sustained infusion that delivered a total of 8.2 μg of I-PTH. After an equilibration period of 20 minutes, two 30-minute urine collections were obtained. In competition experiments, HPTH 7-84 was given five minutes prior to hPTH 1-84 at a molar ratio of 4:1.
Blood samples and blood pressure measurements were recorded at the beginning and end of the baseline period, at the beginning of the PTH infusion period, and at the end of the study. The concentration of inulin in plasma and urine was determined by the method of Führ, Kaczmarczyk, and Kruttgen, Klin Wochenschr, 33:729-730 (1955). The estimation of the glomerular filtration rate (GFR) by inulin clearance and the calculation of the fractional urinary excretion rate of phosphorus (FEP04) were performed in the standard fashion. Blood samples were centrifuged, and plasma phosphorus and calcium concentrations were measured.

Molecule	intracellular cAMP (ROS/17.2 cells)	decrease of the calcemic response induced by hPTH 1-84 [1] [%]	serum calcium lowered over time (average) ([2]; i.v. injection of PTH7-84 alone, equimolar to 10 μg/kg hPTH, five rats, saline control lowered about 0.18)	serum calcium raised over time (average), co-injection with hPTH ([2]; i.v. injection of hPTH (10 μg/kg) and an equimolar amount of PTH7-84, six rats)	antagonist property compared with PTH3-34 ([2]; prevention of the hPTH-induced serum calcium increase in rats)	decrease of the increase in FEP04 (phosphaturia) induced by hPTH 1-84 ([3]; hPTH 7-84 coadministered with hPTH 1-84, molar ratio 4:1) [%]	glomerular filtration rate (GFR), hPTH 7-84 given with hPTH 1-84 [3] [mL/min]	glomerular filtration rate (GFR), hPTH 7-84 given with hPTH 1-84 ([3]; listed as 7-84 PTH)	cAMP production, dose dependence (ROS/17.2 cells; 10^-11 to 10^-8 mol/L peptide)	serum calcium raised over time (average) ([2]; i.v. injection 10 μg/kg hPTH alone, nine rats, saline control lowered about 0.18)	glomerular filtration rate (GFR) ([3]; rats infused with hPTH 1-84 alone, N=10, control period 1.8±0.3) [mL/min]	fractional excretion of phosphate (FEP04) ([3]; rats infused with hPTH 1-84 alone, N=10, control period 11.9±2.4) [%]
B1	no effect	94	about 0.30 mg/dl	about 0.03 mg/dl	much more potent in its antagonist property than the previously reported antagonist PTH3-34	50.2	2.6 ± 0.2	significant increase	–	–	–	–
B2	738±4.13 nmol/well and 738±4.1 nmol/well	–	–	–	–	–	–	–	increased cAMP production in a does-dependent manner; also recorded: increased cAMP production in a dose-dependent manner	about 0.65 mg/dl	1.8 ± 0.1	27.7±2.4

Source: US7893021B2, “Parathyroid hormone antagonists and uses thereof” (Scantibodies Laboratory, Inc., priority 1999, dated 2011)
